In patent EP2433948A1, “Use of a new class of nucleotide sugar as antibiotic or cytostatic agent” (Max-Planck-Gesellschaft zur Förderung der Wissenschaften …, priority 2010, dated 2012):

Substrate: CC(=O)N[C@H]1[C@@H](OP(=O)(O)OP(=O)(O)OC[C@H]2O[C@@H](n3ccc(=O)[nH]c3=O)[C@H](O)[C@@H]2O)O[C@H](CO)[C@@H](O)[C@@H]1O
Assay: MurA activity/inhibition assay (phosphate release coupled to PNPase cleavage of fluorescent 7-methylguanosine)
Format: biochemical, E. coli
Conditions: other: 0.5 µM MurA, 1 mM phosphoenolpyruvate; best fit parameter of global fit; same as reported in literature; pH 7.5
Excerpt: • (a) MurA performs the first step of UDP-muramic acid biosynthesis. After sequential binding of UNAG and phosphoenolpyruvate, a tetrahedral intermediate is formed that yields enolpyruvyl-UNAG after cleavage of inorganic phosphate. UNAG-3P most likely mimics this tetrahedral intermediate and thereby inhibits MurA catalysis by a competitive binding mechanism. (b) Determination of the Ki of UNAG-3P for MurA. Enolpyruvyl-UNAG formation catalyzed by MurA from E. coli in presence of PEP and UNAG-3P and varying UNAG concentrations under steady state conditions. MurA enzyme kinetics were followed by coupling the reaction to phosphate dependent cleavage of fluorescent 7-methylguanosine by nucleoside phosphorylase resulting in a strong decrease of the fluorescence at 400 nm (λexc = 300 nm). The UNAG-3P concentrations for each saturation curve were 0 µM (●), 15 µM (□) and 30 µM (Δ). A Lineweaver-Burk plot is shown as inset.
The enolpyruvyl activity of E. coli MurA was monitored by coupling phosphate release to cleavage of fluorescent 7-methylguanosine (Sigma) by bacterial purine-nucleoside phosphorylase (PNPase) (Sigma). […] The reactions were monitored by the decrease in fluorescence at 400 nm with excitation set to 300 nm in a FluoroMax-3 spectrofluorometer (HORIBA Jobin Yvon) with excitation and emission bandwidths of 5 nm. […]

B1: E. coli MurA (Escherichia coli K-12) (protein)
chain: MDKFRVQGPTKLQGEVTISGAKNAALPILFAALLAEEPVEIQNVPKLKDVDTSMKLLSQLGAKVERNGSVHIDARDVNVFCAPYDLVKTMRASIWALGPLVARFGQGQVSLPGGCTIGARPVDLHISGLEQLGATIKLEEGYVKASVDGRLKGAHIVMDKVSVGATVTIMCAATLAEGTTIIENAAREPEIVDTANFLITLGAKISGQGTDRIVIEGVERLGGGVYRVLPDRIETGTFLVAAAISRGKIICRNAQPDTLDAVLAKLRDAGADIEVGEDWISLDMHGKRPKAVNVRTAPHPAFPTDMQAQFTLLNLVAEGTGFITETVFENRFMHVPELSRMGAHAEIESNTVICHGVEKLSGAQVMATDLRASASLVLAGCIAEGTTVVDRIYHIDRGYERIEDKLRALGANIERVKGE
  Km: 15 µM
